According to patent US20090093061:

Tested on: GroEL having Aspartate 490 substituted with Cysteine, biotinylated and conjugated onto NeutrAvidin beads

## mitochondrial malate dehydrogenase
  refolding of denatured mMDH (conversion of NADH to NAD+ in the presence of oxaloacetate, OD at 340 nm): positive GroEL-490 activity was confirmed by a reduction in OD at 340 nm with respect to the control
